For assay [1], the target named is Human Serum Albumin (HSA) (human) (UniProt P02768). Description: LSPR absorbance shift of HSA-conjugated gold nanorods; 37.5 ug/mL HSA (partial coverage), BSA block, 60 min incubation.
Assay [2] has the same target. Description: LSPR absorbance shift of HSA-conjugated gold nanorods; carboxyl groups blocked with BSA at 200 ug/mL, 60 min incubation.
Assay [3] shares this target. Description: LSPR absorbance shift of HSA-conjugated gold nanorods; 18.75 ug/mL HSA (partial coverage), BSA block, 60 min incubation.
Assay [4] shares this target. Description: LSPR absorbance shift of HSA-conjugated gold nanorods; carboxyl groups blocked with ovalbumin at 200 ug/mL, 60 min incubation.
Assay [5] has the same target. As to the kind of experiment: LSPR absorbance shift of HSA-conjugated gold nanorods; carboxyl groups blocked with mPEG-NH2 at 16700 ug/mL, 60 min incubation.
Assay [6] has the same target. As to the kind of experiment: LSPR absorbance shift of HSA-conjugated gold nanorods in suspension, dose response at equilibrium; 18.75 ug/mL HSA (partial coverage), BSA block, 30 min incubation.
The target is the same in assay [7]. As to the kind of experiment: LSPR absorbance shift of HSA-conjugated gold nanorods; 600 ug/mL HSA (full coverage), BSA block, 60 min incubation; filing says the value deviates through ligand depletion.
Assay [8] has the same target. Description: LSPR absorbance shift of HSA-conjugated gold nanorods in suspension, dose response at equilibrium; 600 ug/mL HSA (full coverage), BSA block, 30 min incubation; filing says the value deviates through ligand depletion.

Sequence of UniProt P02768 (P02768 25-609 limits assumed): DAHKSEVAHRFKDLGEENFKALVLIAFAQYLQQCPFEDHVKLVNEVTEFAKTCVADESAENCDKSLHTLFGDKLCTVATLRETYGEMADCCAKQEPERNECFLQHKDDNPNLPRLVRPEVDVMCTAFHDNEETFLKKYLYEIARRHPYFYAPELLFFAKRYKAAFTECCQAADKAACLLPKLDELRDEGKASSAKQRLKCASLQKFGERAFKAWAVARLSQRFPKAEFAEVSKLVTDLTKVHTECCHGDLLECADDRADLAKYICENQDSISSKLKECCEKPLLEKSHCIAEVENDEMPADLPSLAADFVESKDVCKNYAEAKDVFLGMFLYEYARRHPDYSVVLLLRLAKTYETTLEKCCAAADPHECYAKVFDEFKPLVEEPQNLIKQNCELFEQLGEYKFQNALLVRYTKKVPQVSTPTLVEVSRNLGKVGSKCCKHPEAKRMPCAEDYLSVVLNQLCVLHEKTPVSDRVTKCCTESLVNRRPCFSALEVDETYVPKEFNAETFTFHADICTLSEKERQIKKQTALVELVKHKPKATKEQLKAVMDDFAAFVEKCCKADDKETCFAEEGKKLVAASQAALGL

The Kd is the constant that tells how readily two partners part at equilibrium. As to “Anti-Human Serum Albumin monoclonal antibody (ab18081, available from Abcam)”, the Kd in assay [1] is 5.5 nM; in assay [2], 8.44 nM; in assay [3], 3.8 nM; in assay [4], 5.22 nM; in assay [5], 2.5 nM; in assay [6], 6.41 nM. For the same substance, the Kd in assay [7] came to 252 nM; in assay [8], 99.4 nM.

The values above are taken from US20150024402A1.
